The text below walks through data of article PMC3183026 (Molecular Biology of the Cell, 2011).

In this assay the target is DCC (endogenous, embryonic rat cortical neurons) (rat (endogenous in E18 cortical neurons), UniProt Q63155 26-1445). The assay is described as follows: co-IP.
Sequence of DCC (endogenous, embryonic rat cortical neurons) (Q63155 26-1445): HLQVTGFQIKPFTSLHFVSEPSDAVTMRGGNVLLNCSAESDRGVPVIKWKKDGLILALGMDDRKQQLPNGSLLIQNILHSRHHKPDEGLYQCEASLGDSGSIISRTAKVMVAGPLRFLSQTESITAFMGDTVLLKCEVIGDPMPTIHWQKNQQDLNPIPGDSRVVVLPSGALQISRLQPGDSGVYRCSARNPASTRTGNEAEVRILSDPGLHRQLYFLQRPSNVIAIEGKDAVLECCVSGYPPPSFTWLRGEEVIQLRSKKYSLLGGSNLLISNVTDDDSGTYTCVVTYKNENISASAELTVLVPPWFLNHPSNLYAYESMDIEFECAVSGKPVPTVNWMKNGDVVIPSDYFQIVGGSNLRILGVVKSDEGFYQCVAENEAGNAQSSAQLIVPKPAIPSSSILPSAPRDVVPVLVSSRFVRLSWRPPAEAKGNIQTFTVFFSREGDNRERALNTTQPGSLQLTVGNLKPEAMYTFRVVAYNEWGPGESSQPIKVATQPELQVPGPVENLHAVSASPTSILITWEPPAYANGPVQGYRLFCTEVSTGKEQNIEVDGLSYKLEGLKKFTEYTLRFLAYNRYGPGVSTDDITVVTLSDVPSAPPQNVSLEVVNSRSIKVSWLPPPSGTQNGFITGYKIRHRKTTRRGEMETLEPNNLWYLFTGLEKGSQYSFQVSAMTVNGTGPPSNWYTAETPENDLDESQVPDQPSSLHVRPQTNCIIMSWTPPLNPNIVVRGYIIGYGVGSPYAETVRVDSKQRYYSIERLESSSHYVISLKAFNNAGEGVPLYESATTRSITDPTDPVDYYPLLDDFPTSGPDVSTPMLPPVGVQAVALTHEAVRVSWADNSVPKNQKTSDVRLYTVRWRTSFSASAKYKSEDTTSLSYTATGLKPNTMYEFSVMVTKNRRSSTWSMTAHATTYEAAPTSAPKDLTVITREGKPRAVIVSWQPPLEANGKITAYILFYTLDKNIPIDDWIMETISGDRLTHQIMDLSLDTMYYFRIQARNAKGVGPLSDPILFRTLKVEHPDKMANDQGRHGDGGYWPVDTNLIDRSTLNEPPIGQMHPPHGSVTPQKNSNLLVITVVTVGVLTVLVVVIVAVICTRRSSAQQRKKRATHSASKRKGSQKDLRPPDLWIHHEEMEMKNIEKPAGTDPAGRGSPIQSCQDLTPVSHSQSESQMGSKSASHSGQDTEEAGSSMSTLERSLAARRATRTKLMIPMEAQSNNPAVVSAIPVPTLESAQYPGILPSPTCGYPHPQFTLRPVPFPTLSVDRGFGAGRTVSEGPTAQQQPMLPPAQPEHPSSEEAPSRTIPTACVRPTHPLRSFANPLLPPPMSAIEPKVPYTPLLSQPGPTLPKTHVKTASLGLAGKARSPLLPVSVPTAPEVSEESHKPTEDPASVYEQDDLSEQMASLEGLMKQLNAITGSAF

B1: ezrin (endogenous, embryonic rat cortical neurons) (natural protein)
chain: MPKPINVRVTTMDAELEFAIQPNTTGKQLFDQVVKTIGLREVWYFGLQYVDNKGFPTWLKLDKKVSAQEVRKENPVQFKFRAKFYPEDVADELIQDITQKLFFLQVKEGILSDEIYCPPETAVLLGSYAVQAKFGDYNKEMHKSGYLSSERLIPQRVMDQHKLSRDQWEDRIQVWHAEHRGMLKDSAMLEYLKIAQDLEMYGINYFEIKNKKGTDLWLGVDALGLNIYEKDDKLTPKIGFPWSEIRNISFNDKKFVIKPIDKKAPDFVFYAPRLRINKRILQLCMGNHELYMRRRKPDTIEVQQMKAQAREEKHQKQLERQQLETEKKRRETVEREKEQMLREKEELMLRLQDFEQKTKRAEKELSEQIEKALQLEEERRRAQEEAERLEADRMAALRAKEELERQAQDQIKSQEQLAAELAEYTAKIALLEEARRRKEDEVEEWQHRAKEAQDDLVKTKEELHLVMTAPPPPPPPVYEPVNYHVQEGLQDEGAEPMGYSAELSSEGILDDRNEEKRITEAEKNERVQRQLLTLSNELSQARDENKRTHNDIIHNENMRQGRDKYKTLRQIRQGNTKQRIDEFEAM
With B1, the “fold increase relative to unstimulated neurons” value stood at 6 fold.
